Data as given in PMC10622577, “Structural basis for stabilisation of the RAD51 nucleoprotein filament by BRCA2” (Nature Communications, 2023).
“Also recorded” adds a separate entry of the source. Where no end group is shown, it is not given here. MBP = maltose-binding protein (N-terminal fusion tag)

What was measured:
RAD51–ssDNA NPF = test: EMSA of MBP-fusion TR2 mutants binding the RAD51-ssDNA NPF; parameters: species or system human; conditions: for binding of MBP-TR2 mutant to the RAD51 NPF: ssDNA 60 nt, His6-MBP-TR2 5 min, room temperature, 25 mM HEPES pH 7.5, 150 mM NaCl, 2 mM ATP, 5 mM CaCl2, repeated once
Source text: The local resolution at the TR2 site was lower than for the global map, which complicated the model fitting for the peptide. Fitting with the correct sequence register was guided by the density of the large side chains in the highly conserved TR2 region 3296-KAFQPPR-3302 (Fig. 3A). To validate our molecular model of BRCA2 TR2 association with the RAD51 NPF, we performed a mutational analysis of the RAD51–TR2 interface, targeting residues that are predicted by the structure to be important for the RAD51-TR2 interaction (Fig. 4A, B). We generated TR2 mutants as Maltose-Binding Protein (MBP) fusion proteins (Supplementary Fig. 1) and measured by EMSA their ability to bind the RAD51 NPF.
Fig. 4 Structure-based mutational analysis of the BRCA2 TR2-RAD51 interface. A Multiple sequence alignment of BRCA2 TR2 sequences, coloured according to residue type (Hse: Homo sapiens; Gga: Gallus gallus; Xla: Xenopus laevis; Dre: […]). B Drawing of TR2 and RAD51 amino acids targeted for mutagenesis. Drawing style as in D–F of Fig. 3. C–E EMSA analysis of RAD51–ssDNA NPF binding by MBP-fusion TR2 mutants K3296A, Q3299A, R3302A (C); 3A (K3296A, Q3299, R3302A), 3D (K3296D, Q3299D, R3302D) (D); S3291A, F3298A (E). The TR2 peptide was used as a control. EMSA experiments repeated once. Source data are provided as a Source Data file.
An E.coli codon-optimised gene fragment encoding residues D3260 to Y3308 of human BRCA2 was synthesised (IDT) with flanking BamHI and HindIII restriction sites and ligated into the pMAT11 expression vector[44] (Addgene plasmid #112592) to express BRCA2 TR2 as a dual-tag His6-MBP (Maltose-Binding Protein) fusion protein. pMAT11 constructs for expression of BRCA2 TR2 mutants S3291A, F3298A, K3296A, Q3299A, R3302A, the triple K3296, Q3299, […] alanine (3A) and aspartic acid (3D) mutants were produced in the same way as the wild-type construct.
All His6-MBP-BRCA2 TR2 fusion proteins were expressed and purified in an identical manner. pMat11-His6-MBP-TR2 constructs were transformed into E.coli BL21(DE3)Rosetta2 and transformed cells were used to inoculate 2YT growth medium supplemented with 50 μg/ml ampicillin. Cells were cultured until an OD600 reading of 0.7 before induction with 0.5 mM IPTG. Cell pellets were resuspended in resuspension buffer and sonicated to lyse cells in the presence of EDTA-free protease inhibitor. Cell lysate supernatant was loaded on a 5-ml HisTrap HP column pre-equilibrated with His Buffer A before elution in 40% His Buffer B. Fractions containing the His6-MBP-BRCA2 TR2 protein were pooled and purified further by size-exclusion chromatography using a 16/600 Superdex S75 pg (Cytiva) column pre-equilibrated in storage buffer. To minimise the presence of proteolytically degraded protein, a single fraction at the front of the elution peak containing His6-MBP-TR2 was retained and concentrated to at least 100 μM before flash freezing in liquid nitrogen and storage at −80 °C.
To assess RAD51 nucleoprotein (NPF) formation, wild-type and mutant RAD51 proteins were incubated with DNA in buffer: 25 mM HEPES pH 7.5, 150 mM NaCl, 2 mM DTT, 2 mM ATP, 5 mM CaCl2 for 15 minutes at room temperature. For filament binding of the TR2 peptide or His6-MBP-TR2 protein, the RAD51 NPFs were incubated with TR2 for further 5 minutes at room temperature. For filament binding of BRC4, the BRC4 peptide was pre-mixed with RAD51 for 10 minutes at room temperature before addition of DNA. For experiments with mono-streptavidin (mSA)-capped DNA, mSA (Sigma) was added in 5× molar excess of biotin labels for 15 minutes at room temperature prior to the addition of RAD51. Concentrations are provided in figures and DNA sequences for each experiment are reported in Supplementary Table 1.
Before electrophoresis, samples were mixed with a 0.5:1 volume of 50% (w/v) sucrose solution and analysed on a pre-run 0.5% (w/v) agarose gel in 0.5× TB buffer at 35 V for 2.5 hours at 4 °C. […]

RAD51;BRCA2 TR2 peptide [1] = molecular target: T1, RAD51;BRCA2 TR2 peptide (Homo sapiens;Homo sapiens, UniProt Q06609;P51587 1-339;, |); test: SPR; TR2 on preformed filament; ATP, Ca2+, Mg2+; EMSA: 25 mM HEPES pH 7.5, 150 mM NaCl, 2 mM DTT, 2 mM ATP, 5 mM CaCl2, room temperature; SPR: 25 mM HEPES pH 7.4, 100 mM NaCl, 2 mM DTT, 2 mM ATP, 5 mM CaCl2, 5 mM MgCl2; conditions: tags: untagged (co-expressed with His6-MBP-BRC4, pMBP4-RAD51);
RAD51;BRCA2 TR2 peptide [2] = molecular target: T1, RAD51;BRCA2 TR2 peptide; test: EMSA; TR2 enhances filament; ATP, Ca2+; EMSA: 25 mM HEPES pH 7.5, 150 mM NaCl, 2 mM DTT, 2 mM ATP, 5 mM CaCl2, room temperature; SPR: 25 mM HEPES pH 7.4, 100 mM NaCl, 2 mM DTT, 2 mM ATP, 5 mM CaCl2, 5 mM MgCl2; conditions: tags: untagged (co-expressed with His6-MBP-BRC4, pMBP4-RAD51);
RAD51;BRCA2 TR2 peptide [3] = molecular target: T1, RAD51;BRCA2 TR2 peptide; test: cryo-EM micrographs; TR2 1:0.5; filament bundling; EMSA: 25 mM HEPES pH 7.5, 150 mM NaCl, 2 mM DTT, 2 mM ATP, 5 mM CaCl2, room temperature; SPR: 25 mM HEPES pH 7.4, 100 mM NaCl, 2 mM DTT, 2 mM ATP, 5 mM CaCl2, 5 mM MgCl2; conditions: tags: untagged (co-expressed with His6-MBP-BRC4, pMBP4-RAD51);
human RAD51, wild type [4] = molecular target: T2, human RAD51, wild type (human, UniProt Q06609 1-339); test: native gel or EMSA; TR2 peptide titrated on RAD51 NPFs pre-formed on fluorescein-labelled ss- or dsDNA; 25 mM HEPES pH 7.5, 150 mM NaCl, 2 mM DTT, 2 mM ATP, 5 mM CaCl2, room temperature, TR2 added for 5 minutes; 0.5% agarose gel at 4 °C; conditions: both partners purified
T2 construct: RAD51, human DNA-strand exchange protein; In all assays RAD51 stood as a nucleoprotein filament on ss- or dsDNA with ATP and CaCl2; probably the whole, untagged protein; also called WT RAD51; RAD51 NPF; source: E. coli BL21(DE3)Rosetta2, co-expressed with His6-MBP-BRCA2 BRC4, purified (HisTrap, heparin, SEC)
T2 sequence: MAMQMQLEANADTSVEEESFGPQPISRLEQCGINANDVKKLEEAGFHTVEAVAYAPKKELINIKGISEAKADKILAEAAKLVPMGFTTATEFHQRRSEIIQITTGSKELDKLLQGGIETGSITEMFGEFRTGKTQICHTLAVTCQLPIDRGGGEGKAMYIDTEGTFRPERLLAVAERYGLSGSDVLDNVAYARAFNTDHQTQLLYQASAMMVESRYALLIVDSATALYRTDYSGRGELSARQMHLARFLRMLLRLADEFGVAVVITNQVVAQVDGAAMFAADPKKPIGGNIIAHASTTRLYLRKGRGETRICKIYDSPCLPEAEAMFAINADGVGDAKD

human RAD51, wild type [5] = molecular target: T2, human RAD51, wild type; test: native gel or EMSA; His6-MBP-TR2 fusion proteins added for 5 minutes to RAD51–ssDNA NPFs; 25 mM HEPES pH 7.5, 150 mM NaCl, 2 mM DTT, 2 mM ATP, 5 mM CaCl2, room temperature; 0.5% agarose gel; conditions: both partners purified

## F3298A: His6-MBP fusion protein of BRCA2 TR2 mutant F3298A ({His6-MBP}-DDQKNCKKRRALDFLSRLPLPPPVSPICTFVSPAAQKAAQPPRSCGTKY; cysteine pairing not given here)
RAD51–ssDNA NPF
  binding of MBP-TR2 mutant to the RAD51 NPF: abolished TR2 binding to the RAD51 NPF; also recorded: complete loss of TR2 binding

## K3296A: His6-MBP fusion protein of BRCA2 TR2 mutant K3296A ({His6-MBP}-DDQKNCKKRRALDFLSRLPLPPPVSPICTFVSPAAQAAFQPPRSCGTKY; cysteine pairing not given here)
RAD51–ssDNA NPF
  binding of MBP-TR2 mutant to the RAD51 NPF: modest decrease in filament binding

## Q3299A: His6-MBP fusion protein of BRCA2 TR2 mutant Q3299A ({His6-MBP}-DDQKNCKKRRALDFLSRLPLPPPVSPICTFVSPAAQKAFAPPRSCGTKY; cysteine pairing not given here)
RAD51–ssDNA NPF
  binding of MBP-TR2 mutant to the RAD51 NPF: increased association with the filament

## R3302A: His6-MBP fusion protein of BRCA2 TR2 mutant R3302A ({His6-MBP}-DDQKNCKKRRALDFLSRLPLPPPVSPICTFVSPAAQKAFQPPASCGTKY; cysteine pairing not given here)
RAD51–ssDNA NPF
  binding of MBP-TR2 mutant to the RAD51 NPF: modest decrease in filament binding

## S3291A: His6-MBP fusion protein of BRCA2 TR2 mutant S3291A ({His6-MBP}-DDQKNCKKRRALDFLSRLPLPPPVSPICTFVAPAAQKAFQPPRSCGTKY; cysteine pairing not given here)
RAD51–ssDNA NPF
  binding of MBP-TR2 mutant to the RAD51 NPF: drastically reduced
RAD51–ssDNA NPF; ssDNA, Fig. 4E
  residual binding of MBP-TR2 mutant to the RAD51 NPF: still able to associate with the filament; also recorded: retains a degree of binding to the filament

B1: 60-nt ssDNA biotin (ssDNA)
DNA: ATGGTGTGTGTAGGTTAATGTGAGGAGGAGAGGTGAAGAAGGAGGAGAGAAGAAGGAGGC
RAD51;BRCA2 TR2 peptide [1]; label: 5' biotin
  binding result: binds

B2: 60-nt ssDNA FAM (ssDNA)
DNA: ATGGTGTGTGTAGGTTAATGTGAGGAGGAGAGGTGAAGAAGGAGGAGAGAAGAAGGAGGC
RAD51;BRCA2 TR2 peptide [2]; label: 5' FAM
  binding result: binds

B3: 60-bp dsDNA FAM (dsDNA)
DNA 1: ATGGTGTGTGTAGGTTAATGTGAGGAGGAGAGGTGAAGAAGGAGGAGAGAAGAAGGAGGC
DNA 2: GCCTCCTTCTTCTCTCCTCCTTCTTCACCTCTCCTCCTCACATTAACCTACACACACCAT
RAD51;BRCA2 TR2 peptide [2]; label: 5' FAM on strand 1, blunt
  binding result: binds

B4: 60-bp dsDNA biotin (dsDNA)
DNA 1: ATGGTGTGTGTAGGTTAATGTGAGGAGGAGAGGTGAAGAAGGAGGAGAGAAGAAGGAGGC
DNA 2: GCCTCCTTCTTCTCTCCTCCTTCTTCACCTCTCCTCCTCACATTAACCTACACACACCAT
RAD51;BRCA2 TR2 peptide [1]; label: 5' biotin on strand 1, blunt
  binding result: binds

B5: 50-nt dsDNA Cy3 (dsDNA)
DNA 1: CCGACTGACGCTCAACATAGGTACCACACGGCGAGCTCGATGCACCTCCA
DNA 2: TGGAGGTGCATCGAGCTCGCGACAAACCTTCTATGTTGAGCGTCAGTCGG
RAD51;BRCA2 TR2 peptide [3]; label: 3' Cy3 on strand 1, blunt ends, internal mismatched bubble about 10 nt
  binding result: binds

B6: 32-nt ssDNA Cy5 (ssDNA)
DNA: TTTTTTTTTTTCGTGTGGTACTTTTTTTTTTT
RAD51;BRCA2 TR2 peptide [3]; label: 5' Cy5
  binding result: binds

B7: BRCA2 TR2 peptide spanning amino acids 3260 to 3308 (peptide, UniProt P51587 3260-3308, looked up)
peptide: DDQKNCKKRRALDFLSRLPLPPPVSPICTFVSPAAQKAFQPPRSCGTKY
notes: Only residues 3289 to 3304 are modelled in the PDB entries; source: synthetic peptide (synthesised commercially)
Human RAD51, wild type [4]
  binding result: binds

B8: His6-MBP-BRCA2 TR2 R3302A (domain or fragment, human, UniProt P51587 3260-3308, looked up)
chain: DDQKNCKKRRALDFLSRLPLPPPVSPICTFVSPAAQKAFQPPASCGTKY
notes: BRCA2, human, TR2 motif, residues D3260 to Y3308; source: E. coli BL21(DE3)Rosetta2, purified (HisTrap, SEC); not shown: His6, N-terminal, kept; MBP, N-terminal, kept
Human RAD51, wild type [5]
  binding result: binds

B9: His6-MBP-BRCA2 TR2 Q3299A (domain or fragment, human, UniProt P51587 3260-3308, looked up)
chain: DDQKNCKKRRALDFLSRLPLPPPVSPICTFVSPAAQKAFAPPRSCGTKY
notes: as for B8
Human RAD51, wild type [5]
  binding result: binds

B10: His6-MBP-BRCA2 TR2 K3296A (domain or fragment, human, UniProt P51587 3260-3308, looked up)
chain: DDQKNCKKRRALDFLSRLPLPPPVSPICTFVSPAAQAAFQPPRSCGTKY
notes: as for B8
Human RAD51, wild type [5]
  binding result: binds
